Data set [1] has as its target cystathionine γ-lyase from Toxoplasma gondii (Toxoplasma gondii). The experiment in a line: SEC; analytical gel filtration on Superdex 200 HR 10/300 GL; 50 mM sodium phosphate buffer pH 8.5, 150 mM NaCl, 0.1 mM DTT; mass from a calibration curve.
In data set [2] the target is T1, Cystathionine γ-lyase (TgCGL) (Toxoplasma gondii, UniProt A0A125YN40, N360S).
T1 construct: gene TGME49_312930; full-length, N-terminal His6 tag
The data set is described as follows: UV-visible absorption titration at […] and […] nm; also substrate inhibition (Ki […]). Type of data set: binding.

Data set [3] deals with T2, Cystathionine γ-lyase (TgCGL) (Toxoplasma gondii, UniProt A0A125YN40, S77E).
T2 construct: gene TGME49_312930; full-length, N-terminal His6 tag
T2 sequence (A0A125YN40 1-417 S77E): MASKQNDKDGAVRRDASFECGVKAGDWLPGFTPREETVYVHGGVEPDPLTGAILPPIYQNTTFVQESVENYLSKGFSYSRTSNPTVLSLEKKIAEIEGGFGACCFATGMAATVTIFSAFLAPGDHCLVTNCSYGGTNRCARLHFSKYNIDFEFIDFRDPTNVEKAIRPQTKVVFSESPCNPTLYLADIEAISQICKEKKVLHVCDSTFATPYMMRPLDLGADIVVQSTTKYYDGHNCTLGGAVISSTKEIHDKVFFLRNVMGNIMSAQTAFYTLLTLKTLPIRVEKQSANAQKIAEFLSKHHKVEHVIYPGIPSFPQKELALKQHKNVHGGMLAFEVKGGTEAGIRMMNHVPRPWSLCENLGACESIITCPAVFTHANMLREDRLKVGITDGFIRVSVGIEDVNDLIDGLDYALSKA
The data set is described as follows: UV-visible absorption titration at […] and […] nm (no hydrolysis detected). Type of data set: binding.

Data set [4] concerns the target T3, Cystathionine γ-lyase (TgCGL) (Toxoplasma gondii, UniProt A0A125YN40).
T3 construct: gene TGME49_312930; full-length, N-terminal His6 tag
T3 sequence (A0A125YN40 1-417): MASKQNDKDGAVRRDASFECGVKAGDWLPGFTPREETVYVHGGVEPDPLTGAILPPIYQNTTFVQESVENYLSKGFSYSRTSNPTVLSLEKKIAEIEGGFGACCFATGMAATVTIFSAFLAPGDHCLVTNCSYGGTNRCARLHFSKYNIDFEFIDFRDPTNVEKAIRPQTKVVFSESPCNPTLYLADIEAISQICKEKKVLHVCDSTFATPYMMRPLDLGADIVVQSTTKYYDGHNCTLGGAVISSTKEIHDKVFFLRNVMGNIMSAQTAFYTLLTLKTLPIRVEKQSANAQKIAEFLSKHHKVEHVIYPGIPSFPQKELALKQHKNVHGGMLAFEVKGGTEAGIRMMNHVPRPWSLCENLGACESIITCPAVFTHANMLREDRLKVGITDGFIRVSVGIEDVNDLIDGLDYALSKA
The experiment in a line: UV-visible absorption titration at […] and […] nm; also substrate inhibition (Ki […]). Type of data set: binding.

Data set [5] relates to N[C@@H](CCSC[C@H](N)C(=O)O)C(=O)O. The data set is described as follows: purified protein. The class given is biochemical, Toxoplasma gondii. Conditions: PLP active site; external aldimine with PLP (modelled); pH 9.0; 37.0 °C.
Data set [6] has as its system N[C@@H](CSCSC[C@H](N)C(=O)O)C(=O)O. The data set is described as follows: steady-state kinetics of the purified enzyme, LDH-coupled assay (Km). Type of data set: biochemical, Toxoplasma gondii. The settings on record: PLP; pH 9.0; 37.0 °C.
In data set [7] the target is T4, Cystathionine γ-lyase (TgCGL) (Toxoplasma gondii, UniProt A0A125YN40).
T4 construct: gene TGME49_312930; full-length, N-terminal His6 tag (apo-protein)
The data set is described as follows: intrinsic fluorescence titration of apo-TgCGL (excitation […] nm, emission […] nm). The class given is binding.

Data set [8] deals with N[C@@H](CCSC[C@H](N)C(=O)O)C(=O)O. The experiment in a line: steady-state kinetics of the purified enzyme, DTNB assay (Km). Type of data set: biochemical, Toxoplasma gondii. Conditions: PLP; pH 9.0; 37.0 °C.
Substrate in data set [9]: N[C@@H](CSCSC[C@H](N)C(=O)O)C(=O)O
The data set is described as follows: steady-state kinetics of the purified enzyme, LDH-coupled assay (Km). The settings on record: PLP; pH 9.0; 37.0 °C. Type of data set: biochemical, Toxoplasma gondii. The source holds these as a separate data set.

Substrate in data set [10]: NCCSC[C@H](N)C(=O)O
The data set is described as follows: steady-state kinetics of the purified enzyme, α,β-elimination (Km). Type of data set: biochemical, Toxoplasma gondii. Conditions: PLP.

Substrate in the data set “purified protein”: N[C@@H](CCSC[C@H](N)C(=O)O)C(=O)O
The experiment in a line: purified protein. Conditions: PLP active site; external aldimine with PLP (modelled); pH 9.0; 37.0 °C.

In the case of “cystathionine γ-lyase from Toxoplasma gondii (enzyme)”, in data set [1], the stoichiometry N (commonly a count of units in the complex or per binding partner) amounted to 4.

As for `N[C@@H](CS)C(=O)O` [L-cysteine], the Kd was 335 ± 15 (335 nm); 331 ± 20 (421 nm) µM in [2], 677 ± 180 (335 nm); 874 ± 87 (421 nm) µM in [3] and 306 ± 41 (335 nm); 273 ± 52 (421 nm) µM in data set [4].

“Cystathionine γ-lyase (TgCGL) (Toxoplasma gondii ME49; N360S)”: in [5], the Km (usually the concentration of substrate that gives half-maximal velocity) was determined as 1100 ± 100 µM; the kcat (as a rule, the maximal rate divided by the concentration of active sites) amounted to 0.08 ± 0.01 s⁻¹; the kcat/Km (as a rule, the second-order rate constant that governs catalysis at low substrate concentration) was found to be 73 ± 16 M⁻¹ s⁻¹. Also, in [6], the Km amounted to 860 ± 30 µM, the kcat worked out at 0.19 ± 0.01 s⁻¹ and the kcat/Km amounted to 220 ± 20 M⁻¹ s⁻¹.

Consider `Cc1ncc(COP(=O)(O)O)c(C=O)c1O` [PLP], for which, in data set [7], the Kd turned out to be 170 ± 40 nM.

Turning to “Cystathionine γ-lyase (TgCGL) (Toxoplasma gondii ME49; S77A)”, in [8], the Michaelis constant (Km) was 2400 ± 300 µM, the catalytic constant (kcat) was 0.7 ± 0.1 s⁻¹ and the kcat/Km turned out to be 290 ± 80 M⁻¹ s⁻¹.

B1: Cystathionine γ-lyase (TgCGL) (Toxoplasma gondii ME49) (protein)
chain: MASKQNDKDGAVRRDASFECGVKAGDWLPGFTPREETVYVHGGVEPDPLTGAILPPIYQNTTFVQESVENYLSKGFSYSRTSNPTVLSLEKKIAEIEGGFGACCFATGMAATVTIFSAFLAPGDHCLVTNCSYGGTNRCARLHFSKYNIDFEFIDFRDPTNVEKAIRPQTKVVFSESPCNPTLYLADIEAISQICKEKKVLHVCDSTFATPYMMRPLDLGADIVVQSTTKYYDGHNCTLGGAVISSTKEIHDKVFFLRNVMGNIMSAQTAFYTLLTLKTLPIRVEKQSANAQKIAEFLSKHHKVEHVIYPGIPSFPQKELALKQHKNVHGGMLAFEVKGGTEAGIRMMNHVPRPWSLCENLGACESIITCPAVFTHANMLREDRLKVGITDGFIRVSVGIEDVNDLIDGLDYALSKA
notes: full-length, N-terminal His6 tag
For B1, the values for the Km (in [9]; in [10]; in the data set “purified protein”) were 510 ± 10 µM, 1300 ± 100 µM and 900 ± 100 µM, respectively. Further, the kcat in data set [9] was determined as 0.24 ± 0.01 s⁻¹. For the same molecule, in [9], the kcat/Km was found to be 470 ± 30 M⁻¹ s⁻¹.

The values above are taken from publication PMC6073527, “Functional Characterization and Structure-Guided Mutational Analysis of the Transsulfuration Enzyme Cystathionine γ-Lyase from Toxoplasma gondii” (International Journal of Molecular Sciences, 2018).
